Broadly, the Kd is the equilibrium constant for the complex coming apart. Higher therefore signals weaker binding.

Drawing on article PMC11438962, this text covers Kd for one substance.

This experiment has as its target biotin-labeled HNRNPA1 peptide carrying R194 symmetric dimethylation (SDMA). The experiment can be described thus: BLI; Octet-RED96; biotinylated R194 SDMA HNRNPA1 peptide immobilised on streptavidin biosensors at 10 µg/mL; ZMYND11-MYND serially diluted three-fold from 333 nM in PBST; 300 s association, 300 s dissociation; 1:1 binding model. (In general: BLI is a label-free optical method that tracks binding on a fibre tip over time.)

The substance “His-tagged recombinant MYND domain of ZMYND11 (domain or fragment)” had a Kd of 3.5 nM.
